Assay results reported in patent US20220298254A1 (HUMMINGBIRD BIOSCIENCE HOLDINGS PTE, published 2022).
Like-named read-outs stand apart in the source and are kept apart here.

What was measured:
[1] = biological target: T1, human CD47 (recombinant protein, construct not stated) (human, UniProt Q08722 19-141); test: ELISA on coated human CD47
T1 construct: also called hCD47; human CD47 protein
Description: (§1) 96-well plates (Nunc, Denmark) were coated with 1 μg/ml of human CD47 or VISTA protein in PBS, for 1 h at room temperature. Plates were blocked for 1 h at room temperature with 1% BSA in Tris buffer saline containing 0.05% Tween 20 (TBS-T). The test antigen-binding molecules were added at concentrations ranging from to 0.002 μg/ml to 200 μg/ml, and the plates were incubated at room temperature for 1 h. Plates were then washed three times with TBS-T, and were then incubated with a HRP-conjugated secondary antibody for 1 h at room temperature. After washing, plates were developed with colorimetric detection substrate 3,3′,5,5′-tetramethylbenzidine (Turbo-TMB; Pierce, USA). The reaction was stopped after 3.5 min with 2M […], and OD was measured at 450 nm.

human VISTA protein = human VISTA protein (human, UniProt Q9H7M9 33-194, limits assumed); test: ELISA on coated human VISTA protein
Description: as §1
In a separate ELISA, the antigen-binding molecules were evaluated for binding to human VISTA.

[2] = biological target: T2, untagged human CD47 protein (Sinobiological Inc) (human, UniProt Q08722 19-141); test: competition ELISA: inhibition of His-tagged SIRPα binding to coated human CD47
T2 construct: Bought

[3] = biological target: T1, human CD47 (recombinant protein, …); test: BLI (BLItz), IgG1 captured on anti-human Fc tips, human CD47 as analyte, 1:1 global fit
Description: Biosensors were first hydrated for at least 10 m in assay buffer (phosphate buffered saline) followed by buffer baseline for 60 s and loading of the human IgGs onto the biosensor tips at 25 nM for 120 s. The tips were then washed briefly for 60 s with the assay buffer to remove nonspecifically bound proteins or unbound IgGs for obtaining a second buffer baseline. The association phase of the IgGs with antigens (250 nM to 62.5 nM) was set up at 120 s which was followed by a dissociation phase (assay buffer alone) for 120 s. All the BLITz runs were measured at room temperature at a stirring speed of 1000 rpm and AHC biosensors were regenerated using 10 mM of glycine (pH 2.7) after the assay. Binding affinity between the immobilized antibodies on the AHC sensors and human CD47 were determined by analyzing the binding kinetic curves using the software BLItz Pro. All the sensorgrams were reference subtracted and globally fitted into a 1:1 model which analysed the binding curves at different concentrations of antigens and generated kinetic constants (KD/Ka/Kd) for the globally fitted data. All the binding curves were subjected to step correction which corrects the misalignment between association and dissociation steps and only the curves with R² values greater than 0.9 were used for analysis.

[4] = biological target: T1, human CD47 (recombinant protein, …); test: as above; remark: listed apart in the source
Description: Bio-Layer Interferometry (BLI) experiments were performed using a single channel BLItz system (ForteBio, Menlo Park, Calif.) using Anti-human immunoglobulin G (IgG) Fc (AHC) coated biosensor tips (Pall ForteBio, Menlo Park, Calif.) for capturing human IgGs. Biosensors were first hydrated for at least 10 m in assay buffer (phosphate buffered saline) followed by buffer baseline for 30 s and loading of the human IgGs onto the biosensor tips at concentrations ranging from 25-50 nM for 120 s. The tips were then washed briefly for 30 s with the assay buffer to remove nonspecifically bound proteins or unbound IgGs for obtaining a second buffer baseline. […] All the BLITz runs were measured at room temperature at a stirring speed of 1000 rpm and AHC biosensors were regenerated using 10 mM of glycine (pH 2.7) after the assay. Binding affinity between the immobilized antibodies on the AHC sensors and human CD47 were determined by analyzing the binding kinetic curves using the software BLItz Pro. All the sensorgrams were reference subtracted and globally fitted into a 1:1 model which analysed the binding curves at different concentrations of antigens and generated kinetic constants (KD/Ka/Kd) for the globally fitted data. […]
(§2) The anti-CD47 antibody clones in IgG1 format were analyzed for binding affinity to human CD47.

[5] = biological target: T1, human CD47 (recombinant protein, …); test: BLI (BLItz), IgG captured on anti-human IgG Fc (AHC) tips, human CD47 as analyte, global 1:1 fit
Description: Bio-Layer Interferometry (BLI) experiments were performed using a single channel BLItz system (ForteBio, Menlo Park, Calif.) using Anti-human immunoglobulin G (IgG) Fc (AHC) coated biosensor tips (Pall ForteBio, Menlo Park, Calif.) for capturing human IgGs. Biosensors were first hydrated for at least 10 m in assay buffer (phosphate buffered saline) followed by buffer baseline for 30 s and loading of the human IgGs onto the biosensor tips at concentrations ranging from 25-50 nM for 120 s. The tips were then washed briefly for 30 s with the assay buffer to remove nonspecifically bound proteins or unbound IgGs for obtaining a second buffer baseline. The association phase of the IgGs with antigens (500 nM-0 nM) was set up at 120 s which was followed by a dissociation phase (assay buffer alone) for 120 s. All the BLITz runs were measured at room temperature at a stirring speed of 1000 rpm and AHC biosensors were regenerated using 10 mM of glycine (pH 2.7) after the assay. Binding affinity between the immobilized antibodies on the AHC sensors and human CD47 were determined by analyzing the binding kinetic curves using the software BLItz Pro. All the sensorgrams were reference subtracted and globally fitted into a 1:1 model which analysed the binding curves at different concentrations of antigens and generated kinetic constants (KD/Ka/Kd) for the globally fitted data. All the binding curves were subjected to step correction which corrects the misalignment between association and dissociation steps and only the curves with R² values greater than 0.9 were used for analysis.
as §2

| Binder | EC50 [1] | Fold increase in EC50 relative to 1-1-A1_BM [1] | binding result (human VISTA protein) | Fold increase in IC50 relative to 1-1-A1_BM [2] | IC50 [2] | Kd [3] | koff [3] | kon [3] | Kd [4] | koff [5] | kon [5] |
| --- | --- | --- | --- | --- | --- | --- | --- | --- | --- | --- | --- |
| 11A1H10-IgG1 (antibody, V domains shown, Humanised version of clone 1-1-A1, IgG1/kappa; also called 1A11H10) VH: QVQLVQSGAEVKKPGASVKVSCKASGYTFTGYVIHWVRQAPGQGLEWMGYINPYNGGTNYAQKFKGRVTLTSDTSTTTAYMELSRLRSEDTAVYYCASGGYYTMDYWGQGTLVTVSS VL: DVVMTQSPLSLPVTLGQPASISCRSSQHLEYSNGYSYLHWYQQRPGQSPRLLIYKVSNRDSGVPDRFSGSGSGTDFTLKISRVEAEDVGVYYCSQSTHVPYTFGGGTKVEIKR | 38.1 mg/L | 21200 fold | no binding (tested: 0.002 µg/ml to 200 µg/ml) | > 200 fold | > 100 mg/L | 0.111 µM | 0.00898 s⁻¹ | 80900 M⁻¹ s⁻¹ |  |  |  |
| 11A1H9-IgG1 (antibody, V domains shown, Humanised version of clone 1-1-A1, IgG1/kappa; also called 1A11H9) VH: QVQLVQSGAEVKKPGASVKVSCKASGYTFTGYVIHWVRQAPGQGLEWMGYINPYNGGTNYAQKFKGRVTLTSDTSTTTAYMELSRLRSEDTAVYYCASGGYYTMDYWGQGTLVTVSS VL: DVVMTQSPLSLPVTLGQPASISCRSSQHLEYSTGYSYLHWYQQRPGQSPRLLIYKVSNRDSGVPDRFSGSGSGTDFTLKISRVEAEDVGVYYCSQSTHVPYTFGGGTKVEIKR | 23.5 mg/L | 13100 fold | no binding (tested: 0.002 µg/ml to 200 µg/ml) | > 200 fold | > 100 mg/L | 0.0233 µM | 0.00635 s⁻¹ | 273000 M⁻¹ s⁻¹ |  |  |  |
| 11A1H5-IgG1 (antibody, V domains shown, Humanised version of clone 1-1-A1, IgG1/kappa; also called 1A11H5) VH: QVQLVQSGAEVKKPGASVKVSCKASGYTFTGYVIHWVRQAPGQGLEWMGYINPYNGGTNYAQKFKGRVTLTSDTSTTTAYMELSRLRSEDTAVYYCASGGYYTMDYWGQGTLVTVSS VL: DVVMTQSPLSLPVTLGQPASISCRSSQHLEYSNGYSYLHWYQQRPGQSPRLLIYKISNRFSGVPDRFSGSGSGTDFTLKISRVEAEDVGVYYCSQSTHVPYTFGGGTKVEIKR | 0.00015 mg/L | 0.08 fold | no binding (tested: 0.002 µg/ml to 200 µg/ml) | 0.42 fold | 0.201 mg/L | 0.00928 µM | 0.0012 s⁻¹ | 129000 M⁻¹ s⁻¹ |  |  |  |
| 11A1H11-IgG1 (antibody, V domains shown, Humanised version of clone 1-1-A1, IgG1/kappa; also called 1A11H11) VH: QVQLVQSGAEVKKPGASVKVSCKASGYTFTGYVIHWVRQAPGQGLEWMGYINPYNGGTNYAQKFKGRVTLTSDTSTTTAYMELSRLRSEDTAVYYCASGGYYTMDYWGQGTLVTVSS VL: DVVMTQSPLSLPVTLGQPASISCRSSQHLEYSNGYSYLHWYQQRPGQSPRLLIYKISNRFSGVPDRFSGSGSGTDFTLKISRVEAEDVGVYYCSQGTHVPYTFGGGTKVEIKR | 0.0021 mg/L | 1.17 fold | no binding (tested: 0.002 µg/ml to 200 µg/ml) | 1.02 fold | 0.483 mg/L |  |  |  |  |  |  |
| 11A1H7-IgG1 (antibody, V domains shown, Humanised version of clone 1-1-A1, IgG1/kappa; also called 1A11H7) VH: QVQLVQSGAEVKKPGASVKVSCKASGYTFTGYVIHWVRQAPGQGLEWMGYINPYNGGTNYAQKFKGRVTLTSDTSTTTAYMELSRLRSEDTAVYYCASGGYYTMDYWGQGTLVTVSS VL: DVVMTQSPLSLPVTLGQPASISCRSSQHLEYSQGYSYLHWYQQRPGQSPRLLIYKVSNRDSGVPDRFSGSGSGTDFTLKISRVEAEDVGVYYCSQSTHVPYTFGGGTKVEIKR | 36.8 mg/L | 20400 fold | no binding (tested: 0.002 µg/ml to 200 µg/ml) | > 200 fold | > 100 mg/L |  |  |  |  |  |  |
| anti-CD47 clone 1-1-A1 IgG1 (antibody, V domains shown) VH: EVQLQQSGPDLVKPGASVKMSCKASGYTFTNYVIHWVKQKPGQGLEWIGYINPYNDGTKSNEKFKGKATLTSDKSSTSAYMELSSLTSEDSAVYYCASGGYYTMDYWGQGTSVTVSS VL: DVVMTQTPLSLPVSLGDQASISCRSSQHLEYSNGYSYLHWYLQKPGQSPQLLIYKISNRFSGVPDRFSGSGSGTDFTLKISRVEAEDLGVYFCSQSTHVPYTFGGGTKLEIKR |  |  |  |  |  |  |  |  | 0.009 µM | 0.00371 s⁻¹ | 451000 M⁻¹ s⁻¹ |
| 11A1H4-IgG1 (antibody, V domains shown, Humanised version of clone 1-1-A1, IgG1/kappa; also called 1A11H4) VH: QVQLVQSGAEVKKPGASVKVSCKASGYTFTNYVIHWVRQAPGQGLEWMGYINPYNDGTKYNQKFKGRVTLTSDTSTTTAYMELSRLRSDDTAVYYCASGGYYTMDYWGQGTLVASTK VL: DVVMTQSPLSLPVTLGQPASISCRSSQHLEYSNGYSYLHWYQQRPGQSPRLLIYKISNRFSGVPDRFSGSGSGTDFTLKISRVEAEDVGVYYCSQSTHVPYTFGGGTKVEIKR | 0.00018 mg/L | 0.1 fold | no binding (tested: 0.002 µg/ml to 200 µg/ml) | 0.32 fold | 0.15 mg/L |  |  |  |  |  |  |
| 11A1H6-IgG1 (antibody, V domains shown, Humanised version of clone 1-1-A1, IgG1/kappa; also called 1A11H6) VH: QVQLVQSGAEVKKPGASVKVSCKASGYTFTNYVIHWVRQAPGQGLEWMGYINPYNDGTKYNQKFKGRVTLTSDTSTTTAYMELSRLRSDDTAVYYCASGGYYTMDYWGQGTLVASTK VL: DVVMTQSPLSLPVTLGQPASISCRSSQHLEYSQGYSYLHWYQQRPGQSPRLLIYKVSNRDSGVPDRFSGSGSGTDFTLKISRVEAEDVGVYYCSQSTHVPYTFGGGTKVEIKR | 13.4 mg/L | 7440 fold | no binding (tested: 0.002 µg/ml to 200 µg/ml) | > 200 fold | > 100 mg/L | 0.134 µM | 0.0144 s⁻¹ | 108000 M⁻¹ s⁻¹ |  |  |  |
| 11A1H3-IgG1 (antibody, V domains shown, Humanised version of clone 1-1-A1, IgG1/kappa; also called 1A11H3) VH: QVQLVQSGAEVKKPGASVKVSCKASGYTFTNYVMHWVRQAPGQGLEWMGYINPYNDGTKSNEKFQGRVTLTSDTSTSTAYMELSSLRSEDTAVYYCASGGYYTMDYWGQGTLVASTK VL: DVVMTQSPLSLPVTLGQPASISCRSSQHLEYSNGYSYLHWYQQRPGQSPRLLIYKISNRFSGVPDRFSGSGSGTDFTLKISRVEAEDVGVYYCSQSTHVPYTFGGGTKVEIKR | 0.00022 mg/L | 0.12 fold | no binding (tested: 0.002 µg/ml to 200 µg/ml) |  |  | 0.00339 µM | 0.000904 s⁻¹ | 266000 M⁻¹ s⁻¹ |  |  |  |
